The nature of data set [1]: Particle size, polydispersity and zeta-potential by dynamic light scattering. It is filed as physicochemical. The settings on record: Table 2, polystyrene nanoparticles. The protocol:
Nanoparticle carrier particles were formed by the methods of the preceding Example, and characterized as follows. The particle size and the zeta-potential were measured using Zeta Plus zeta-potential analyzer (Brookhaven Instruments Ltd., New York, N.Y.), which employs the dynamic light scattering technique for particle size measurement. The particle size and zeta-potential measurements were made after 1:1000 dilution of particle stock in filtered deionized water. Further, the particles were visualized using a transmission electron microscope (TEM). The carbon-coated grids were floated on a suspension droplet of plain or functionalized nanoparticles on a flexible plastic film (Parafilm, Pechiney Plastic Packaging, Neenah, Wis.) to allow the adsorption of nanoparticles onto the grid. After drying the particles, uranyl acetate was added as a negative stain to the carbon grid and allowed to react with the particles. This procedure makes the particles electron dense, allowing their visualization using an electron microscope. The particles were photographed using EM410 Phillips electron microscope (Eindhoven, The Netherlands) set at 60 kV and a magnification of 153000×.
Characterization of particles: The particle size and the zeta-potential were measured using ZetaPlus® zeta-potential analyzer, Brookhaven Instruments Ltd. (New York, N.Y.), which employs the dynamic light scattering technique for particle size measurement. The particle size and zeta-potential measurements were carried out after 1:1000 dilution of particle stock in filtered deionized water before lyophilization in filtered deionized water. The effective diameter of conjugated nanoparticles was higher than that of unconjugated nanoparticles.
Particle Size Analysis: Particle size and zeta-potential of the nanoparticles before and after conjugation following lyophilization were measured in double distilled water (100 μl of particle/1 ml of water) using dynamic light scattering (DLS). After lyophilization the plasmid loaded particles were weighed (1 mg) into glass Kimble tubes. To each tube, 1 ml of double distilled water was added and vortexed at high speed (Vortex Genie, Scientific Industries, Bohemia, N.Y.) till the particles were resuspended. The particle size and zeta potential was determined using dynamic light scattering after dilution (1:10 in double distilled water) (Brookhaven Instruments Corp., Holtsville, N.Y.). Nanoparticle size after lyophilization was 210.4±0.68 nm and zeta potential was −32.85±0.87 mV. Nanoparticle size and zeta potential was measured after conjugation with deslorelin and transferrin. Similarly, the unconjugated nanoparticles were also treated under the same conditions as with the conjugated nanoparticles (the conjugation protocol as mentioned above).
Transport studies were conducted in bovine nasal tissue. Bovine nasal tissue was obtained from freshly slaughtered cattle, and different regions (MTA, MTP, ITP) were prepared as described in Example 13. Nanoparticles coupled to deslorelin or transferring via aldehyde sulfate moieties were prepared as described in Example 3. The nanoparticle size was measured using a Zeta Plus Analyzer (Brookhaven Instruments Limited, UK). Particle size was analyzed before and after ligand conjugation in deionized filtered water.

The test system of another data set is excised bovine cornea. The data set is described as follows: Nanoparticle transport and uptake, excised bovine cornea in modified Ussing chambers. It is filed as in vitro ADME. As for the experimental part: (§1) Nanoparticle uptake and transport studies were performed using excised bovine cornea and conjunctiva mounted in vertical diffusion chambers. Modified Ussing chambers (Navicyte, Reno, N.Y.) were used to mount bovine corneas and conjunctivas for transport studies. The tissues were exposed to 1.5 ml of assay buffer with either conjugated or unconjugated nanoparticles (100 μg/ml) on the mucosal/tear side (donor side). The area of exposure is 0.64 cm^2 for conjunctiva and slightly greater for cornea due to curvature. The receiver side was exposed to 1.5 ml of assay buffer without nanoparticles. The buffers were pre-equilibrated to 37° C. or 4° C. as required and the chambers were maintained at the desired temperature. […] The experiment was terminated at 4 hours and the samples were stored in polypropylene tubes at 4° C. until analysis.
(§2) At the end of 4 hour transport studies, the tissue area exposed to particle suspension (aperture area: 0.64 cm^2) were cut and washed thrice with assay buffer followed by the acid buffer (pH 5.0). The tissues were then homogenized in 2% Triton-X using Tissue Tearor™. The tissue debris was separated by centrifugation at 3000 rpm (Marathon Micro AR) for 10 minutes. The supernatant was collected to analyze the amount of nanoparticles taken up by the tissue. The supernatant was analyzed by spectrofluorometry at excitation and emission wavelengths of 505 and 515 nm, respectively.

Data set [2] concerns bovine corneal epithelium, stroma, endothelium and aqueous humor. Kind of data set: Eye drop nanoparticle uptake in excised (ex vivo) bovine eye model. It is filed as in vitro ADME. The protocol: The precorneal residence of eye drops is very short and effective delivery to the cornea requires rapid binding and entry of drugs or carriers in vivo. The in vivo situation was simulated using an intact bovine eye for an ex vivo model. […] Then, the particle uptake at 5 and 60 min was measured following thorough washing of the eye surface to remove any loosely adherent particles. The uptake was expected to be the highest for the solutes or carriers tightly bound to the corneal surface or for those that are rapidly taken up by the corneal epithelium. To maintain the surface moisture and to simulate tear flow in part, buffer drops (50 μl) were administered every 15 min, and the water bath was sealed.
Freshly excised bovine eyes were obtained from a local slaughterhouse (Nebraska Beef, Omaha, Nebr.). The experiments were initiated within 2-3 hours after sacrifice. For the experiment, bovine eyes were placed in Teflon coated wells containing assay buffer to immerse the posterior segment, while exposing the cornea towards the surface. The Teflon coated well plate was placed in a shaking water bath maintained at 37° C. and the water bath was sealed with Saran Wrap™ (S.C. Johnson & Son, Inc., Racine, Wis.). Alternatively, the setup was placed in a cold room maintained at 4° C. Prior to dosing, the eyes were equilibrated for about 30 min with assay buffer at 37° C. or 4° C. as required. The measured temperatures of the vitreous humor and aqueous humor in the 37° C. study were ˜37° C. and ˜35° C., respectively. The measured temperature was ˜5° C. for both vitreous humor as well as aqueous humor in the 4° C. study. In the ex vivo studies, either 5 or 60 min time points were chosen since eye drops are rapidly cleared from the tissue surface and because high solute uptake is desired in a short time with eye drops.
Ex vivo model studies involved administration of a 50 μl dosing solution/suspension drop to the cornea followed by 50 μl drops of assay buffer on the cornea every 15 minutes to maintain corneal moisture. At the end of 0, 5, or 60 minutes study, the corneal surface was washed thrice with assay buffer (1 ml each time) followed by three washes with acid buffer (1 ml each time; assay buffer adjusted to pH 5.0 with HCl) to remove any loosely adherent nanoparticles prior to tissue analysis. The same protocol was followed even when plain buffer drops were assessed. To initiate the uptake experiment, a 50 μl eye drop of 10 mg/ml (in studies assessing the influence of epithelium in particle uptake) or 1 mg/ml nanoparticle suspension (unconjugated nanoparticles with carboxylate functionalities, deslorelin-CA and transferrin-CA) was topically administered to isolated bovine eyeballs. Buffer and wash treatments were performed as described above. At 5 and 60 minutes after drop instillation, the incubation was terminated and the corneal epithelium, stroma, endothelium and aqueous humor (0.5 ml) were isolated from the eyeball. The tissues were homogenized in 2% Triton-X. The supernatant obtained after centrifuging tissue homogenate at 5000 rpm (Marathon Micro AR, Fisher Scientific) for 10 minutes was analyzed by spectrofluorometry at excitation and emission wavelengths of 505 and 515 nm, respectively.

Data set [3] deals with excised bovine conjunctiva. The data set is described as follows: Nanoparticle transport and uptake, excised bovine conjunctiva in modified Ussing chambers. It is filed as in vitro ADME. As for the experimental part:
as §1, §2

The conditions of data set [4]: in vivo, cited from earlier work.
The target of the next data set is LHRH-receptor. The data set is described as follows: Receptor binding assays (kinetic, saturation, competition) with 125I-deslorelin in bovine pituitary and nasal tissue homogenates. The settings on record: for IC50: read-out: Low affinity - IC50 II. The protocol:
Radioactivity was measured in the pellet using a Perkin-Elmer γ-counter.
Reprod. […] Reprod. […] Radioactivity was measured in the pellet using a Perkin-Elmer γ-counter. […] The experiment was repeated three times.
Competition Studies: To determine the amount of unlabelled deslorelin required to displace the radioactivity, competition studies were conducted. […] Assays were performed in triplicates. At the end of 4 hr, the incubation tubes were centrifuged at 10,000 g for 20 min at 4° C. to separate the bound fraction. Radioactivity was measured in the pellet using a Perkin-Elmer γ-counter. The same controls as in the kinetic and saturation studies were used. The experiment was repeated three times.

Data set [5] in a line: 3H-mannitol transport across excised bovine cornea (corneal barrier integrity). The settings on record: read-out: apparent permeability coefficient of mannitol. It is filed as in vitro ADME. As for the experimental part: The corneal barrier integrity in the ex vivo bovine model of Example 5 was also studied by analysis of ^3H-mannitol transport, with or without nanoparticle exposure. ^3H-mannitol was obtained from American Radiolabeled Chemicals, Inc. (St. Louis, Mo.). ^3H-mannitol transport across excised bovine cornea was performed without any treatment or after dosing the bovine ex vivo eye model with a 50 μl drop of assay buffer or 50 μl of 1 mg/ml nanoparticle suspension followed by incubation up to 60 min with buffer treatments as described above. Temperature was maintained at 37° C.
At 0, 5 and 60 minutes after assay buffer drop instillation and 60 min after nanoparticles drop instillation, the eyes were washed thrice with assay buffer (1 ml each time) and the corneas were isolated from the eyeball. The tissues were then mounted in modified Ussing chambers (Navicyte, Reno, N.Y.) for mannitol transport study. The aperture area of the chambers is 0.64 cm^2. The corneal area exposed was expected to be slightly greater than the chamber aperture area due to corneal curvature. ^3H-mannitol (1.5 ml; 1 μCi/ml) was placed in the donor chamber (epithelial to endothelial transport) and plain assay buffer (1.5 ml) was placed in the receiver chamber. At various time points up to 4 hours, 200 μl samples were removed from the receiver chamber and replaced with an equal volume of fresh assay buffer. To each sample, 4 ml of scintillation fluid (Fisher Scientific, NJ) was added and the radioactivity was quantified using a liquid scintillation counter. […] Data are expressed as mean±standard deviation for n=4.

Setting [6] is: versus unconjugated nanoparticles, 37° C.
Setting [7] is: Corneal Epithelium, 50 μl of 1 mg/ml.
The mark [8] stands for this setting: Corneal Stroma, 50 μl of 1 mg/ml.

Where two headings read alike, the source gives them in different places.

“Transferrin-CA: transferrin-carboxylate-conjugated polystyrene nanoparticles” gave a Zeta potential in data set [1] of −29.24 ± 4.33 mV. Further, the “Measured Diameter” value in data set [1] (1:1000 dilution in filtered deionized water, includes hydrodynamic layer, n = 3) worked out at 84.7 ± 0.8 nm. In addition, in the data set on excised bovine cornea (37° C.), the “uptake by isolated bovine cornea at the end of 4 hours” value came to 2.36±0.03%. Besides, the “cumulative transport in 4 hours across isolated bovine cornea” value in the data set on excised bovine cornea (37° C., 100 μg/ml donor) is given as 2.76±0.03%. For the same compound, in the data set with excised bovine cornea (versus 37° C.), the “reduction in corneal uptake at 4° C.” value was determined as 47%. For the same compound, the “increase of percent transport across bovine cornea by conjugation” value in the data set on excised bovine cornea (setting [6]) is reported as 74%. Moreover, the “Corneal epithelial uptake (60 min)” value in data set [2] (Control (4° C.)) was determined as 307.1 ± 124 ng/mg tissue/mg dose. For the same compound, in data set [2] (Control (37° C.)), the “Corneal epithelial uptake (60 min)” value turned out to be 1146.3 ± 306.6 ng/mg tissue/mg dose. Moreover, in data set [2] (setting [7]), the “Concentration at 5 min” value is recorded as 791 ± 239 ng/mg tissue/mg dose, the “Concentration at 60 min” value stood at 1146 ± 307 ng/mg tissue/mg dose, the “NP uptake at 5 min (%)” value worked out at 4.96% and the “NP uptake at 60 min (%)” value came to 7.19%. In addition, in data set [2] (setting [8]), the “NP uptake at 5 min (%)” value is listed as 10.98% and the “NP uptake at 60 min (%)” value is recorded as 3.31%. The “Corneal epithelial uptake (60 min)” value in data set [2] (With free ligand (37° C.), free deslorelin or transferrin 1 mg/ml) is 467.1 ± 131.9 ng/mg tissue/mg dose. The “total corneal uptake in 5 min” value in data set [2] (summary of Examples 5-8) is around 16%. In addition, the “uptake in bovine conjunctiva at the end of 4 hours” value in data set [3] (37° C.) is on record as 2.83±0.03%. The “cumulative transport in 4 hours across conjunctiva” value in data set [3] (37° C., 100 μg/ml donor) stood at 3.5±0.1%. For the same compound, in data set [3] (versus 37° C.), the “reduction in conjunctival uptake at 4° C.” value worked out at 52% and the “reduction in the cumulative transport in conjunctiva at 4° C.” value amounted to 89%. The “increase of percent transport across conjunctiva by conjugation” value in data set [3] (setting [6]) amounted to 51%.
As for `CCNC(=O)[C@@H]1CCCN1C(=O)[C@H](CCCNC(=N)N)NC(=O)[C@H](CC(C)C)NC(=O)[C@@H](CC(C)C)NC(=O)[C@H](Cc1ccc(O)cc1)NC(=O)[C@H](CO)NC(=O)[C@H](Cc1c[nH]c2ccccc12)NC(=O)[C@H](Cc1c[nH]cn1)NC(=O)[C@@H]1CCC(=O)N1` [leuprolide], the bioavailability in data set [4] (inhaled or intranasal) was 2.9%; in data set [4], 28%.
For the compound `CCNC(=O)[C@@H]1CCCN1C(=O)[C@H](CCCN=C(N)N)NC(=O)[C@H](CC(C)C)NC(=O)[C@@H](Cc1c[nH]c2ccccc12)NC(=O)[C@H](Cc1ccc(O)cc1)NC(=O)[C@H](CO)NC(=O)[C@H](Cc1c[nH]c2ccccc12)NC(=O)[C@H](Cc1cnc[nH]1)NC(=O)[C@@H]1CCC(=O)N1` [deslorelin], the half-inhibitory concentration (IC50) at LHRH-receptor (ITP) was determined as 32.9 ± 1.25 nM; at LHRH-receptor (MTA), 53.2 ± 4 nM; at LHRH-receptor (MTP) it was 42.1 ± 1.83 nM; on LHRH-receptor (Pituitary, competition with 125I-deslorelin) it was 17.9 ± 0.449 nM. Also, in the data set with LHRH-receptor (competition studies, nasal tissue regions), the “high affinity binding sites as share of all the binding sites available” value was 60-70%.
`OC[C@@H](O)[C@@H](O)[C@H](O)[C@H](O)CO` [mannitol]: the Papp at 4 h, 1 μCi/ml in data set [5] (corneas isolated at 5 min following 50 μl assay buffer drop) was 0.5 ± 0.1 ×10⁻⁶ cm/s; in data set [5] (corneas isolated at 60 min following 50 μl assay buffer drop), 0.47 ± 0.04 ×10⁻⁶ cm/s; in data set [5] (freshly isolated corneas), 0.4 ± 0.1 ×10⁻⁶ cm/s.

Source of the values: patent US8821943B2, “Methods and compositions for targeted delivery of therapeutic agents” (Board of Regents of the University of Nebraska, priority 2006, dated 2014).
